Results on one substance are retold here after patent publication US20230061804A1.

This assay deals with mRFP1-ENLYFQS-(r8)8-Tail. The experiment in a line: live imaging of co-transfected HaCATs; client signal inside against outside KG-like granules.

Regarding sfGFP-dTEVP, the partition coefficient (P) was found to be 2.1.
